Results taken from patent publication US20090111753A1, “Nogo-A Polypeptide Fragments, Variant Nogo Receptor-1 Polypeptides, and Uses Thereof” (Yale University, priority 2004, published 2009).
No end group written: not given here. *: point of attachment. Biotin = O=C1N[C@H]2[C@H](CS[C@H]2CCCCC(=O)*)N1

Columns and labels:
E13 chick DRG neurons = assay: cDRG neurite outgrowth assay; type: cell-based
Method: FIG. 2D. Differential effects of Amino-Nogo fragments on neurite outgrowth. Dissociated neurons from E13 chick DRGs were plated on 96 well dishes coated with lpmol protein per well and stained for neurofilament localization.
FIG. 2E. Neurite length per neuron were measured and plotted as percentage of PBS control with increasing concentration of dried protein for experiment described in […].
FIG. 6C. B24/32 peptide inhibits neurite outgrowth. Dissociated neurons from E13 chick DRG were plated onto 96 well dishes coated with 500 pmol of dried peptides as indicated and stained for neurofilament localization.
FIG. 6D. Neurite length per neuron was measured and plotted as percentage of PBS control for experiments as in (C).
It has been recognized that the Amino-Nogo-A protein inhibits non-neuronal cell spreading and axonal outgrowth when the protein is substrate bound (Chen, M. S., et al., Nature 403:434-439 (2000); Fournier, A. E., et al., Nature 409:341-346 (2001)). […] The later domain has been termed Δ20. To determine whether the NgR-interacting aa of Amino-Nogo-A described in Example 1 regulate cell spreading and axonal outgrowth, various fragments were expressed as GST fusion proteins and purified from E. coli. To generate GST fusion proteins, amino Nogo fragments were cloned in pGEX2T (Amersham Pharmacia). Native and soluble GST fusion proteins were expressed and purified as described (GrandPre, T., et al., Nature 403:439-444 (2000)). COS-7 binding assays were done as described (Fournier, A. E., et al., Nature 409:341-346 (2001)). Bound AP to COS-7 cells was measured using NIH image software. Fibroblast spreading and cDRG outgrowth assay were done as described (Fournier, A. E., et al., Nature 409:341-346 (2001)) with some modifications. Briefly, 50 μl of purified GST fusion protein or peptides diluted in PBS was pipetted into polylysine precoated 96 well plates (Becton Dickson Biocoat plates) and dried overnight at room temperature. For fibroblast spreading assay, subconfluent COS-7 cells were then plated for 1 hour in serum containing medium before fixation and staining with rho damine-phalloidin.
The same GST-Amino-Nogo proteins were tested for their ability to reduce neurite outgrowth from chick E13 DRG neurons. For cDRG outgrowth assay, dissociated E13 cDRG neurons were plated for 6 hours before fixation. […] Cell area, number of attached cells and neurite length were measured using the Imageexpress machine and software (Axon Instrument).
We reasoned that fusing the 24 aa segment of Amino-Nogo-A to NEP32 antagonist peptide might create a high affinity antagonist with a potency similar to the binding of AP-B4C-66 to NgR. […] Cell area, number of attached cells and neurite length were measured using the linageexpress machine and software (Axon Instrument).

NgR ligands = assay: Binding of alanine substituted NgR mutants to NgR ligands, summary categories; conditions: AP-Nogo66, AP-B4C, AP-B4C66, AP-Lingo-1, AP-OMgp and AP-MAG; compared to wild type NgR
Summary of the method: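 AP-fused ligands (Nogo66, B4C, B4C66, Lingo-1, OMgp, MAG) were assayed against 74 Ala-substitution mutants of human NgR1 targeting surface charged patches, glycosylation sites and predicted binding regions, plus the D259N variant. Outcomes were grouped into categories: binding lost for all ligands, retained for all, or ligand-selective.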

[1] = target: T1, AP fusion protein with the B4C fragment of Amino-Nogo-A fused directly to Nogo-66 (human, UniProt Q9NQC3 1055-1120); assay: AP-ligand binding, COS-7
T1 construct: domain: Nogo-66; also called AP-B4C66; AP-B4C-66; not shown: alkaline phosphatase (AP), vector pcAP6
T1 sequence: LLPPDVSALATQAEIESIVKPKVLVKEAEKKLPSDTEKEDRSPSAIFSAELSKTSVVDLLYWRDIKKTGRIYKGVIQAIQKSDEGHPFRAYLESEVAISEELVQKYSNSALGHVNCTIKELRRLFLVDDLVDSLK

[2] = target: T2, AP-fused Amino-Nogo fragment B4C (a.a. 950-1018) (human, UniProt Q9NQC3 950-1018); assay: AP-ligand binding, COS-7
T2 construct: also called AmNg B4C; AP-B4C; not shown: alkaline phosphatase (AP), vector pcAP6
T2 sequence: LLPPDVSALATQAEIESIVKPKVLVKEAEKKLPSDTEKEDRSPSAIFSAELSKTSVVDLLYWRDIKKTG

AP-Nogo-66 = target: T3, AP-Nogo-66 (UniProt Q9NQC3 1055-1120); assay: AP-ligand binding, COS-7
T3 construct: domain: Nogo-66; construct described elsewhere (Fournier 2001); also called AP-Ng66; Ng66; not shown: alkaline phosphatase (AP); construct described elsewhere
T3 sequence (looked up): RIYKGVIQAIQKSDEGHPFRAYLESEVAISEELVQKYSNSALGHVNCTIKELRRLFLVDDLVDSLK

[3] = target: T4, NgR expressed on COS-7 cells (species not stated); assay: AP fusion on NgR-expressing COS-7 cells
T4 chain: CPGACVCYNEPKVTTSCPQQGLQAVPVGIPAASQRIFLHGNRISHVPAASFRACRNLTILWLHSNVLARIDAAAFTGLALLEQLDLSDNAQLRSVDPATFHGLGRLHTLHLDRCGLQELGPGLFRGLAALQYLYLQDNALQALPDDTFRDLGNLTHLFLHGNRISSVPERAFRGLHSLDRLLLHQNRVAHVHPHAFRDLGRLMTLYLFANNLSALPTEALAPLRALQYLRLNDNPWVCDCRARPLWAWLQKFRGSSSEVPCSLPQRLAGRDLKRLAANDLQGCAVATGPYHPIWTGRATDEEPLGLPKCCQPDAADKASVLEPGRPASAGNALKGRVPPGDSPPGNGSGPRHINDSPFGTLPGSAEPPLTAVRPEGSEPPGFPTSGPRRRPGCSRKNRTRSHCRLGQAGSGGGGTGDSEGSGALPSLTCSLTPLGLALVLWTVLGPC
Excerpt: Several alkaline phosphatase (AP) fusion proteins containing various Nogo-A segments derived from regions between the amino terminus and the first hydrophobic segment were examined to identify the mechanism of Amino-Nogo-A action. To generate additional AP fusion proteins, human amino Nogo fragments were amplified and ligated to the pcAP6 vector digested with restriction enzymes EcoRI and XhoI as described (Fournier, A. E., et al., Nature 409:341-346 (2001)). Plasmids were then transfected into HEK293T cells and conditioned media were collected after 7 days. None of these fragments bind with high affinity to non-transfected COS-7 cells. […] This binding is saturable with a Kd indistinguishable from that for AP-Nogo-66 association with NgR (Table I). To better define the region responsible for Amino-Nogo interaction with NgR, a range of truncation mutants of Amino-Nogo were examined as AP fusion proteins.
Binding Kds for AP fused Amino-Nogo fragments were measured by applying conditioned media containing AP fusion protein to NgR expressing COS-7 cells. Bound AP was stained and measured.

Molecule: Biotin-IFSAELSKTSVVDLLYWRDIKKTG [carboxyl 24 aa segment of Amino-Nogo-A]
- effect on Nogo-66 action on neurite outgrowth (E13 chick DRG neurons; biotinylated peptide, FIGS. 6C and 6D): does not block or enhance Nogo-66 action on neurite outgrowth

Molecule: biotin-IFSAELSKTSVVDLLYWRDIKKTGGRIYKGVIQAIQKSDEGHP FRAYLESEVAISEE [24-32 fusion peptide]
- axon outgrowth from DRG neurons (E13 chick DRG neurons; 500 pmol of dried biotinylated peptide per well): potently inhibited axon outgrowth

B1: human NgR1 alanine mutant 87, 89, 133, 136 (receptor)
chain: CPGACVCYNEPKVTTSCPQQGLQAVPVGIPAASQRIFLHGNRISHVPAASFRACRNLTILALASNVLARIDAAAFTGLALLEQLDLSDNAQLRSVDPATFHGLGRLATLALDRCGLQELGPGLFRGLAALQYLYLQDNALQALPDDTFRDLGNLTHLFLHGNRISSVPERAFRGLHSLDRLLLHQNRVAHVHPHAFRDLGRLMTLYLFANNLSALPTEALAPLRALQYLRLNDNPWVCDCRARPLWAWLQKFRGSSSEVPCSLPQRLAGRDLKRLAANDLQGCAVATGPYHPIWTGRATDEEPLGLPKCCQPDAADKASVLEPGRPASAGNALKGRVPPGDSPPGNGSGPRHINDSPFGTLPGSAEPPLTAVRPEGSEPPGFPTSGPRRRPGCSRKNRTRSHCRLGQAGSGGGGTGDSEGSGALPSLTCSLTPLGLALVLWTVLGPC
- ligand binding category of NgR mutant (Table II) (NgR ligands): No binding
- binding result [1]: no binding
- binding result [2]: no binding
- binding result (AP-Nogo-66): no binding

B2: human NgR1 alanine mutant 182, 186, 158, 160 (receptor)
chain: CPGACVCYNEPKVTTSCPQQGLQAVPVGIPAASQRIFLHGNRISHVPAASFRACRNLTILWLHSNVLARIDAAAFTGLALLEQLDLSDNAQLRSVDPATFHGLGRLHTLHLDRCGLQELGPGLFRGLAALQALALQDNALQALPDDTFRDLGNLTALFLAGNRISSVPERAFRGLHSLDRLLLHQNRVAHVHPHAFRDLGRLMTLYLFANNLSALPTEALAPLRALQYLRLNDNPWVCDCRARPLWAWLQKFRGSSSEVPCSLPQRLAGRDLKRLAANDLQGCAVATGPYHPIWTGRATDEEPLGLPKCCQPDAADKASVLEPGRPASAGNALKGRVPPGDSPPGNGSGPRHINDSPFGTLPGSAEPPLTAVRPEGSEPPGFPTSGPRRRPGCSRKNRTRSHCRLGQAGSGGGGTGDSEGSGALPSLTCSLTPLGLALVLWTVLGPC
- ligand binding category of NgR mutant (Table II) (NgR ligands): No binding
- binding result [1]: no binding
- binding result [2]: no binding
- binding result (AP-Nogo-66): no binding

B3: human NgR1 alanine mutant 111, 113, 114, 138 (receptor)
chain: CPGACVCYNEPKVTTSCPQQGLQAVPVGIPAASQRIFLHGNRISHVPAASFRACRNLTILWLHSNVLARIDAAAFTGLALLEQLALAANAQLRSVDPATFHGLGRLHTLHLARCGLQELGPGLFRGLAALQYLYLQDNALQALPDDTFRDLGNLTHLFLHGNRISSVPERAFRGLHSLDRLLLHQNRVAHVHPHAFRDLGRLMTLYLFANNLSALPTEALAPLRALQYLRLNDNPWVCDCRARPLWAWLQKFRGSSSEVPCSLPQRLAGRDLKRLAANDLQGCAVATGPYHPIWTGRATDEEPLGLPKCCQPDAADKASVLEPGRPASAGNALKGRVPPGDSPPGNGSGPRHINDSPFGTLPGSAEPPLTAVRPEGSEPPGFPTSGPRRRPGCSRKNRTRSHCRLGQAGSGGGGTGDSEGSGALPSLTCSLTPLGLALVLWTVLGPC
- ligand binding category of NgR mutant (Table II) (NgR ligands): No binding
- binding result [1]: no binding
- binding result [2]: no binding
- binding result (AP-Nogo-66): no binding

B4: AP-fused Amino-Nogo fragment a.a. 995-1015 (ligand)
chain: IFSAELSKTSVVDLLYWRDIK
modifications: also: alkaline phosphatase (AP) fusion
notes: not shown: alkaline phosphatase (AP), vector pcAP6
- Kd [3]: 4.55 nM

B5: AP-fused Amino-Nogo fragment a.a. 996-1018 (ligand)
chain: FSAELSKTSVVDLLYWRDIKKTG
modifications: also: alkaline phosphatase (AP) fusion
notes: as for B4
- Kd [3]: 26.6 nM

B6: AP-Amino-Nogo-A-24 (a.a. 995-1018) (ligand)
chain: IFSAELSKTSVVDLLYWRDIKKTG
modifications: also: alkaline phosphatase (AP) fusion
notes: also called Amino-Nogo-24; not shown: alkaline phosphatase (AP), vector pcAP6
- Kd [3]: 2.43 nM

B7: AP-fused Amino-Nogo-A-19 (a.a. 995-1013) (ligand)
chain: IFSAELSKTSVVDLLYWRD
modifications: also: alkaline phosphatase (AP) fusion
notes: also called Ng19; not shown: alkaline phosphatase (AP), vector pcAP6
- Kd [3]: 2.48 nM

B8: AP-fused Amino-Nogo fragment a.a. 971-1018 (ligand)
chain: KVLVKEAEKKLPSDTEKEDRSPSAIFSAELSKTSVVDLLYWRDIKKTG
modifications: also: alkaline phosphatase (AP) fusion
notes: as for B4
- Kd [3]: 2.69 nM

B9: AP-fused Amino-Nogo fragment a.a. 995-1014 (ligand)
chain: IFSAELSKTSVVDLLYWRDI
modifications: also: alkaline phosphatase (AP) fusion
notes: as for B4
- Kd [3]: 3.19 nM
